# From the RNAGym collection of RNA variant scans (doi:10.1073/pnas.2313332121)
# B1: TPR t1 (parent)
# chain: GACCAAUCUGCCCUCAGAGCUCGAGAACAUCUUCGGAUGCAGAGGAGGCAGGCUUCGGUGGCGCGAUAGCGCCAACGUCCUCAACCUCCAAUGCAUCCCACCACAUGAUGAUGCCUGAAGAGCCUUGGUUUUUUG
# Variants of: B1
# Test: polymerase ribozyme fitness, log enrichment relative to wild type (log ratio); higher = more active; in vitro selection for triplet polymerase activity
# Outline: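 Genotype fitness is the logarithm of its enrichment divided by wild-type enrichment, using inverse-variance-weighted averages of replicates. That logarithm is base 2. Enrichment was measured by Illumina sequencing of input and output libraries from one triplicate in vitro selection round, with frozen incubation at −7 °C, on PCR-built, transcribed mutant libraries of each subunit of a heterodimeric triplet polymerase ribozyme, retaining genotypes with ≥10 input reads and ≥1 read per output.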
row,Variant,polymerase ribozyme fitness (log ratio)
1,C82A U125A,-0.778
2,C11A C64U,-1.04
3,U21A A27C U78G A84U C114A,-6.87
4,G110C A118U,-4.26
5,A27U U30A G61U C72U A84C C98G A111U,-8.22
6,A26C C82A,-5.2
7,G60A C88U,-0.511
8,U55C A90U,-1.58
9,C22A C31G G61A C102A C123G,-7.56
10,A5U C22A U112A,-2.64
11,C34U C72U U106A,-4.34
12,A84U C115G,-3.83
13,C11G A66G C114U C124G,-3.83
14,C13G G71U,-1.79
15,A37C G60U C82U A83U U87A,-2.34
16,A90C U106A A108G,-2.24
17,C13U G47C U78C U109G,-4.45
18,G58C A90U U109A C114U,-5.55
19,C53U C104A,-1.8
20,C8G U9G C12G C49G,-0.256
21,U14A C70G,-3.97

row,Variant,polymerase ribozyme fitness (log ratio)
1,A24G C88U A95C C124A U133A,-0.316
2,G17A A90C,-3.17
3,G117U A118U U130C,-3.28
4,C88U C104U,0.689
5,U54C C86G U112G G120C,-1.16
6,C49A U55G A74C U81G A90G G117U,-2.62
7,C62U C97A,-5.14
8,A27G C115U,-4.58
9,C62A G77C U87A,-1.71
10,G10U C22U G47A G63C U96A C123A,-5.69
11,C101G C114A,-3.3
12,C62U G135U,-0.561
13,G10U C53A G77C U78A G107C A121U,-4.29
14,G17A G69A C102U C114G U131G,-6.68
15,A27U C104U,-3.5
16,C40U C98U,-2.01
17,U9G U30C G120C G127A,-3.41
18,U78C A83U C115A,-0.234
19,G10U C76A,-1.51
20,G42C C53A C85U C114G C124U U133G,-3.5
21,G44C C86G,-1.54

row,Variant,polymerase ribozyme fitness (log ratio)
1,A2U G93C,-3.65
2,C3A U9G G17C U54G G69U A105C G117A,-5.55
3,G61A A84C,0.126
4,C8A C11G C13U C20A C49G,-3.3
5,C56A U106G G110C,-5.41
6,C56G C86U U112A A118G A119G,1.32
7,C8G C11U,1.67
8,C8G C73G G128A,-1.19
9,A6G G10U A43C G71A,-4.79
10,C22A G63U C101U,-6.16
11,G61A A111U,-2.88
12,A6G A18U,-1.31
13,C13G G48C G63U A105C,-5.9
14,A6C U78A C94G U106G,-3.64
15,C11U C13A C88U,-2.38
16,G71U A84G U126C U133A,-2.74
17,G77A G120U,-0.0426
18,G10C G39A C56G G113U A118U,-4.76
19,A37U G52U G69C,-2.07
20,C56U A83U,0.108
21,C13U A37C C53G G128C,-1.48

row,Variant,polymerase ribozyme fitness (log ratio)
1,G71C C114U,-3.55
2,C8A A18C U38G G61C C94U G110U C123U,-7.38
3,C4G G61C C82G C123U,-3.08
4,U59C C101A,-1.32
5,C73G G117A A121U,-0.326
6,C12A G60A,-1.28
7,A111U U125A,-3.84
8,G23U U112G C114U C124G U125C,-7.12
9,A18U G45C G57C G69U,-1.15
10,A18U G63A G110U,-6.24
11,A43U C102A,-4.93
12,G110C G120U,-4.38
13,A74U G113A U129A,-1.94
14,A103C U132A,-4.12
15,C34A C62U C85G U130C,-2.75
16,A6G A24G G36U C49A,-3.79
17,G48A C56U C70A G93A,-5.28
18,G44A A50G C72A C73U G110A,-4.26
19,A18U C114U,-3.74
20,C82A C99U,-4.04
